The data set can be described thus: preparative SEC and analytical FSEC homogeneity. The settings on record: glycan lost; control: mG6PC1-WT.

B1: mouse glucose-6-phosphatase catalytic subunit 1 (mG6PC1): N96A (protein)
parent chain: MEEGMNILHDFGIQSTRYLQVNYQDSQDWFILVSVIADLRNAFYVLFPIWFHLKETVGINLLWVAVVGDWFNLVFKWILFGQRPYWWVLDTDYYSNSSVPIIKQFPVTCETGPGSPSGHAMGAAGVYYVMVTSTLAIFRGKKKPTYGFRCLNVILWLGFWAVQLNVCLSRIYLAAHFPHQVVAGVLSGIAVAETFSHIRGIYNASLRKYCLITIFLFGFALGFYLLLKGLGVDLLWTLEKAKRWCERPEWVHLDTTPFASLFKNLGTLLGLGLALNSSMYRKSCKGELSKLLPFRFACIVASLVLLHLFDSLKPPSQVELIFYILSFCKSATVPFASVSLIPYCLARILGQTHKKSL
On to B1, for which the stability_or_folding entry is listed as “no change”.

Source of the values: article PMC8753184.
